Measured values as given in US20240408235.

Columns and labels:
Test in all cases: cell_activity
[1] = test system: AAT 37-38L.158 meganuclease (synthetic construct (I-CreI derived)?); settings: HEK293, 25 ng RNA
[2] = test system: AAT 37-38L.167 meganuclease (synthetic construct (I-CreI derived)?); settings: HEK293, 25 ng RNA
[3] = test system: AAT 37-38L.175 meganuclease (synthetic construct (I-CreI derived)?); settings: HEK293, 25 ng RNA
[4] = test system: AAT 37-38L.24 meganuclease (synthetic construct (I-CreI derived)?); settings: HEK293, 25 ng RNA
[5] = test system: AAT 37-38L.262 meganuclease (synthetic construct (I-CreI derived)?); settings: PiZ mouse liver, LNP-A 0.5 mg/kg; 45% at low dose
[6] = test system: AAT 37-38x.50 meganuclease (synthetic construct (I-CreI derived)?); settings: PiZ mouse liver, AAV8 delivery with repair template
[7] = test system: AAT 37-38x.61 meganuclease (synthetic construct (I-CreI derived)?); settings: Hep3B, day 6, 50 ng mRNA
[8] = test system: AAT 41-42L.104 meganuclease (synthetic construct (I-CreI derived)?); settings: HEK293, 25 ng RNA
[9] = test system: AAT 41-42L.153 meganuclease (synthetic construct (I-CreI derived)?); settings: HEK293, 25 ng RNA
[10] = test system: AAT 41-42L.185 meganuclease (synthetic construct (I-CreI derived)?); settings: HEK293, 25 ng RNA
[11] = test system: AAT 41-42L.294 meganuclease (synthetic construct (I-CreI derived)?); settings: HEK293, 25 ng RNA
[12] = test system: AAT 41-42L.42 meganuclease (synthetic construct (I-CreI derived)?); settings: HEK293, 25 ng RNA
[13] = test system: AAT 41-42x.32 meganuclease (synthetic construct (I-CreI derived)?); settings: Hep3B, day 6, 50 ng mRNA
[14] = test system: AAT 33-34x.13 meganuclease (synthetic construct (I-CreI derived)?); settings: PiZ mouse liver, ssAAV repair (11% scAAV)
[15] = test system: AAT 35-36x.70 meganuclease (synthetic construct (I-CreI derived)?); settings: PiZ mouse liver, scAAV repair (3.5% ssAAV)
[16] = test system: AAT 43-44L.105 meganuclease (synthetic construct (I-CreI derived)?); settings: PiZ mouse liver, AAV8 delivery with repair template
[17] = test system: AAT 43-44L.132 meganuclease (synthetic construct (I-CreI derived)?); settings: HEK293, 25 ng RNA
[18] = test system: AAT 43-44L.276 meganuclease (synthetic construct (I-CreI derived)?); settings: HEK293, 25 ng RNA
[19] = test system: AAT 43-44L.384 meganuclease (synthetic construct (I-CreI derived)?); settings: HEK293, 25 ng RNA
[20] = test system: AAT 43-44L.47 meganuclease (synthetic construct (I-CreI derived)?); settings: HEK293, 25 ng RNA
[21] = test system: AAT 43-44x.58 meganuclease (synthetic construct (I-CreI derived)?); settings: PiZ mouse liver, AAV8 delivery with repair template
[22] = test system: AAT 9-10x.311 meganuclease (synthetic construct (I-CreI derived)?); settings: PiZ mouse liver, AAV8; groups 1, 3, 4 (~10% in group 2); site highly methylated

## CCCCACTTTGCACAACTGGGGA (double strand) [AAT 37-38 recognition sequence]
[1]
  activity: 90 % indels
[2]
  activity: 86 % indels
[3]
  activity: 90 % indels
[4]
  activity: 90 % indels
[5]
  activity: 53 % indels
[6]
  activity: 4 % insertions
[7]
  activity: 80 % indels

## TGAGGATCCTTGTGAGTGTTGG (double strand) [AAT 41-42 recognition sequence]
[8]
  activity: 50 % indels
[9]
  activity: 50 % indels
[10]
  activity: 20 % indels
[11]
  activity: 40 % indels
[12]
  activity: 77 % indels
[13]
  activity: 17 % indels

## TTCAGACAGTTGCTCAACCTCT (double strand) [AAT 33-34 recognition sequence]
[14]
  activity: 10 % insertions

## GGCCTGGTCACACTTGGGTTTA (double strand) [AAT 35-36 recognition sequence]
[15]
  activity: 7.5 % insertions

## AGGACCTAGATGTAGGATTCTG (double strand) [AAT 43-44 recognition sequence]
[16]
  activity: 14 % insertions
[17]
  activity: 52 % indels
[18]
  activity: 16 % indels
[19]
  activity: 26 % indels
[20]
  activity: 52 % indels
[21]
  activity: 3 % insertions

## TGCCCGCTCACACCAGACCCTG (double strand) [AAT 9-10 recognition sequence]
[22]
  activity: 20 % indels
